Ends that are not written are not given here.
What was measured:
[1] = molecular target: T1, H-2K^b molecules on RMA-S cells (Mus musculus, UniProt P01901); assay: MHC class I binding on RMA-S cells, H-2K^b; type: cell-based; details: peptide 10 μM
T1 construct: endogenous in cells; host or cells: RMA-S mouse lymphoma cells
T1 sequence (P01901 22-369): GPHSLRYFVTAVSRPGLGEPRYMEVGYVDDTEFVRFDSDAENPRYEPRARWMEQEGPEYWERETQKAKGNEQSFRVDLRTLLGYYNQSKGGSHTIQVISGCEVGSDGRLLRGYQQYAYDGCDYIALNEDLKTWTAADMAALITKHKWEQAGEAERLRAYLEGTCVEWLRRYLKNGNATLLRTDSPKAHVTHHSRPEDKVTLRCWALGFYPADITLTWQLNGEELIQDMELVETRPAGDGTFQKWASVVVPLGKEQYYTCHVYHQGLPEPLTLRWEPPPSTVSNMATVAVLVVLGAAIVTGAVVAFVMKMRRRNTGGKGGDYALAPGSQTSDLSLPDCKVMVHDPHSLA
T1 sequence (P01887 21-119 partner): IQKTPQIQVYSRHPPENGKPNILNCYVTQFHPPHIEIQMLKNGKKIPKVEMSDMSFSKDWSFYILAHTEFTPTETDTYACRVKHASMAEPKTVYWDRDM

[2] = E7 peptide association with the liposome; type: physicochemical; details: 0.7 mg lipids and 0.1 mg E7 per mL (molar ratio=11:1)
Protocol: All lipids were purchased from Avanti Polar Lipids (Alabaster Ala.). Small unilamellar DOTAP, DOEPC, and DOTMA liposomes were prepared by thin film hydration followed by extrusion. The lipid, with or without a drug, in chloroform was dried as a thin layer under a stream of nitrogen in a glass tube. The thin film was vacuum desiccated for 2-3 h and then re-hydrated in cell culture grade water (commercially available from Cambrex of Walkersville, Md.) or buffer containing E7 peptide to a final concentration of 0.7 mg lipids and 0.1 mg E7 per mL (molar ratio=11:1). The lipid dispersion was sequentially extruded through polycarbonate membranes with pore size of 0.4, 0.2 and 0.1 μm. The un-entrapped peptide was not removed. The liposomes were stored at 4° C. until use. E7 peptide association with the liposome was determined by measuring the percentage of liposome-bound peptide. In brief, unbound E7 peptide from DOTAP/E7 or DOTAP/E7/drug (MAP kinase inhibitor) complexes was separated by a Microcon® centrifugal filtrate devices (Millipore, Bedford, Mass.) and the concentration of unbound peptide was measured by Micro BC™ Protein Assay Kit (Pierce, Rockford, Ill. The efficiency of peptide association was determined as percent […] peptide. Approximately 30% of E7 peptide was associated with the liposomes.

[3] = Peptide entrapment efficiency in DOTAP liposomes (LavaPep); type: physicochemical; details: molar ratio lipopeptide: DOTAP = 1:40, mean±SD (n=3)
Protocol: Cationic lipid/antigen complexes were prepared as described above. Peptide encapsulation efficiency was determined by the percentage of the liposome-bound peptide using LavaPep™ peptide quantification kit (commercially available from Fluorotechnics of Sydney, Australia). Since unincorporated lipopeptide aggregated and could not pass the exclusion filter, the incorporated lipopeptide was measured as the amount associated with the extruded liposomes in the presence of 1% SDS and reported as the mean±SD (n=3). For water-soluble peptide such as native E7 and KSS-E7, the unbound peptide was separated from the complex by a Microcon® centrifugal filtration device (commercially available from Millipore of Bedford, Mass.). The concentration of the unbound peptide was measured using LavaPep™ according to the manufacturer's instruction.

[4] = molecular target: T2, H-2D^b molecules on RMA-S cells (Mus musculus, UniProt P01899); assay: MHC class I binding on RMA-S cells, H-2D^b; type: cell-based; details: peptide 10 μM, overnight 27° C. then 2 h 37° C.; FIG. 13
T2 construct: it caused a four-fold up-regulation of H-2D^b molecules on RMA-S cells compared to the control; endogenous in cells; host or cells: RMA-S mouse lymphoma cells
T2 sequence (P01899 25-362): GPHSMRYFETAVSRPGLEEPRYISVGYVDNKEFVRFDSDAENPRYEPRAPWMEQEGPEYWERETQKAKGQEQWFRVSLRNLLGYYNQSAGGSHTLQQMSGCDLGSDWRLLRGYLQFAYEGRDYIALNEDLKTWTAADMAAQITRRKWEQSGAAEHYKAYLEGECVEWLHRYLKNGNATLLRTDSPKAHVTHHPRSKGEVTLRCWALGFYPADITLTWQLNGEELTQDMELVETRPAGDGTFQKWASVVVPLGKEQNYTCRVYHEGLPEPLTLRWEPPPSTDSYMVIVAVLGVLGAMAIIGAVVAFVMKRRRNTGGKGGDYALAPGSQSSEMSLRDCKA
T2 sequence (P01887 21-119 partner): T1 sequence (P01887 21-119 partner)

[5] = system: TC-1 tumor; assay: TC-1 HPV-positive tumor growth in treated mice; type: in vivo, C57BL/6 mice; details: formulated in the DOTAP/antigen complex; FIG. 11
[6] = system: CD8+ T cells; assay: IFN-γ producing CD8+ T cells in spleen after immunization; type: in vivo, mice; details: formulated in DOTAP liposomes; 5 nmol peptide; FIG. 12

Substance	Up-regulation of H-2K^b molecules [1]	E7 peptide associated with the liposomes [2]	Entrapment efficiency (%) [3] [%]	Entrapment efficiency (%) ([3]; listed as E7)	Up-regulation of H-2D^b molecules (mean fluorescence) compared to the control [4]	Anti-tumor activity compared with native E7 [5]	Number of IFN-γ producing CD8+ cells vs native E7 in DOTAP liposomes [6]
RAHYNIVTF [Native E7]	No up-regulation	Approximately 30%	27.1 ± 5.8	about 25%	four-fold	–	–
KSS-E7: E7 peptide RAHYNIVTF elongated with KSS (lysine-serine-serine) spacer, no lipid (not fully specified (N-terminus); also: KSS spacer added, end not given here)	No up-regulation	–	26.4 ± 6.1	–	8 fold	superior anti-tumor activity	superior result than the native E7

Reference: US8877206B2, “Stimulation of an immune response by cationic lipids” (PDS Biotechnology Corporation, priority 2007, dated 2014)
